# B1: Agrobacterium tumefaciens BioZ (enzyme, UniProt A0AA44F6N6 1-328, looked up)
# chain: MQTRSSRMAGFGHAVPARCVRNAEIETRLGLEAGWIERRTGIRTRYWAQEGETLSGLAEKAGRMALENARIGAEDIALTLLATSTPDHLLPPSAPLLAHRLGLTQSGAIDLAGACSGFLYALTLADGFVRTHGRAVLVVAANILSRRINPAERATAVLFADAAGAVVLVPCRDAQRGLLSADLVSDGSGYDLIQIAAGGSSQPFSNDTEAEDTLMTMRDGREVFSRAVATMTQTSQRALQRAEMTATDIQRFLPHQANARMFDAVCGNIGIDRQKTVRTVETFGNSSAATIPLSLSVSNAERPITEGETLLLTAAGAGMTGGAVVYRG
# notes: BioZ (FabH2), atypical beta-ketoacyl-ACP synthase III of Agrobacterium tumefaciens; bioZ gene cloned into pET28a; apparent mass ~36 kDa; 654 protein residues in the two protomers of PDB 6KUE; also called AtBioZ; FabH2; source: E. coli BL21 with pET28::atbioZ, purified (Ni-NTA, TEV cleavage, Superdex 200 Increase SEC); not shown: His6, N-terminal, cleaved
# B2: glutaryl-ACP, P0A6A8 1-78 (natural protein)
# chain: MSTIEERVKKIIGEQLGVKQEEVTNNASFVEDLGADSLDTVELVMALEEEFDTEIPDEEAEKITTVQAAIDYINGHQA
# modifications: here or on the partner: glutaryl thioester on the phosphopantetheine (Ppan) of Serine 36
# B3: E. coli holo-ACP, P0A6A8 1-78 (natural protein)
# chain: B2 chain
# modifications: here or on the partner: phosphopantetheine (Ppan) on Serine 36 (holo-ACP)
# B4: malonyl-ACP, P0A6A8 1-78 (natural protein)
# chain: B2 chain
# modifications: here or on the partner: malonyl thioester on the phosphopantetheine (Ppan) of Serine 36
# Tests used:
# [1] = target: T1, AtBioZ (FabH2, beta-ketoacyl-ACP synthase III) (Agrobacterium fabrum, UniProt Q7CTU0, C115A); assay: ITC (MicroCal PEAQ-ITC, […] °C), N = […]; assay type: binding
# T1 construct: gene bioZ; purified BioZ(C115A)
# [2] = target: the molecule itself; assay: SEC; gel filtration of purified AtBioZ on Superdex 200 Increase 10/300; GF buffer (25 mM Tris-HCl pH 8.0, 100 mM NaCl, 2 mM DTT)
# [3] = target: BioZ(C115A) mutant enzyme of Agrobacterium tumefaciens (Agrobacterium tumefaciens), A0AA44; assay: ITC; MicroCal PEAQ-ITC, 25 °C; 50 μM BioZ(C115A) in the cell, 750 μM substrate in the syringe; 20 mM Tris pH 8.0, 150 mM NaCl; one binding-site model; three independent measurements; conditions: remark: other sources report otherwise
Molecule,Kd [1],stoichiometry N [2],Kd [3],stoichiometry N [3]
CC(C)(COP(=O)(O)OP(=O)(O)OC[C@H]1O[C@@H](n2cnc3c(N)ncnc32)[C@H](O)[C@@H]1OP(=O)(O)O)[C@@H](O)C(=O)NCCC(=O)NCCSC(=O)CCCC(=O)O [glutaryl-CoA],2.64 ± 0.23 µM,,,
B1,,2,,
B2,,,6.17 µM,0.978
B3,,,330 µM,1
B4,,,24.1 µM,0.996

# Source: paper PMC8024396, “Biochemical and structural characterization of the BioZ enzyme engaged in bacterial biotin synthesis pathway” (Nature Communications, 2021)
